Laboratory results taken from paper PMC10850085 (Nature Communications, 2024).

B1: murine TpoR ectodomain, monomeric (TpoR_(1-479)) [modified: N-linked glycans at N117, N178, N349; tryptophan mannosylation (W465, W468); N-linked glycans at N117, N178, N349; tryptophan mannosylation (W465, W468)] [mouse] / peptide version … (parent complex)
chain 1: QDVFLLALGTEPLNCFSQTFEDLTCFWDEEEAAPSGTYQLLYAYRGEKPRACPLYSQSVPTFGTRYVCQFPAQDEVRLFFPLHLWVKNVSLNQTLIQRVLFVDSVGLPAPPRVIKARGGSQPGELQIHWEAPAPEISDFLRHELRYGPTDSSNATAPSVIQLLSTETCCPTLWMPNPVPVLDQPPCVHPTASQPHGPAPFLTVKGGSCLVSGLQAGKSYWLQLRSQPDGVSLRGSWGPWSFPVTVDLPGDAVTIGLQCFTLDLKMVTCQWQQQDRTSSQGFFRHSRTRCCPTDRDPTWEKCEEEEPRPGSQPALVSRCHFKSRNDSVIHILVEVTTAQGAVHSYLGSPFWIHQAVLLPTPSLHWREVSSGRLELEWQHQSSWAAQETCYQLRYTGEGREDWKVLEPSLGARGGTLELRPRARYSLQLRARLNGPTYQGPWSAWSPPARVSTGSE
chain 2: IEGPTLRQWLAARAGGIEGPTLRQWLAARA
B2: monomeric version of the romiplostim peptide [modified: N-terminal biotin moiety; N-terminal biotin moiety] / murine TpoR ectodomain, monomeric (TpoR_(1-479)) [modified: N-linked glycans at N117, N178, N349; tryptophan mannosylation (W465, … (parent complex)
chain 1: IEGPTLRQWLAARA
chain 2: B1 chain 1

Variants of: B1
Assay: SPR; peak response of the last (highest concentration) injection over immobilised romiplostim peptide; concentration not stated for this panel; read off a plot

response	Variant
~220 RU	chain 1 F80A

Variants of: B2
Assay: SPR; peak response of the last injection (100 nM TpoR, top concentration of a two-fold dilution series) over immobilised peptide; read off a plot

response	Variant
~36 RU	chain 1 A12L
